This note sets out measurements from patent US20170313781A1 (IMMUNOMEDICS, published 2017).

Like-named read-outs stand apart in the source and are kept apart here.

Test [1] deals with human Trop-2 on the surface of human tumor cells (human) (UniProt P09758). The test can be described thus: cell binding on NCI-N87 cells, Bmax compared to RS7.
The target is the same in test [2]. As to the kind of experiment: cell binding on NCI-N87 cells, anti-mouse-HRP, luminescence.
Test [3] addresses recombinant human neonatal receptor (FcRn) (human) (UniProt P55899). The test can be described thus: SPR (BIACORE), low-density FcRn chip, three runs, 400 to 25 nM.
Test [4] concerns the target human Trop-2 on the surface of human tumor cells (human) (UniProt P09758). The test can be described thus: cell-based or functional assay.
Test [5] deals with recombinant human neonatal receptor (FcRn) (human) (UniProt P55899). As to the kind of experiment: SPR (BIACORE), FcRn chip. (In general: Surface plasmon resonance follows binding to a sensor surface in real time, without labels.)
Chain of recombinant human neonatal receptor (FcRn) (human) (P55899 24-297 limits assumed, chain 1 of 2): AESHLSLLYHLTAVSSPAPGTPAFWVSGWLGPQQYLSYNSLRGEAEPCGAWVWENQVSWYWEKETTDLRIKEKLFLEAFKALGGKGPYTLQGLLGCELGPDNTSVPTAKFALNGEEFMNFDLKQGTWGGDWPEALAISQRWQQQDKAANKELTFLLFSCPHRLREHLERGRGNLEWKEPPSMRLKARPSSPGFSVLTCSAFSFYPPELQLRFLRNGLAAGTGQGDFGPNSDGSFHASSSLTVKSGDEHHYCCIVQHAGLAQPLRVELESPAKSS
Chain of recombinant human neonatal receptor (FcRn) (human) (P61769 21-119 limits assumed, chain 2 of 2, further chain): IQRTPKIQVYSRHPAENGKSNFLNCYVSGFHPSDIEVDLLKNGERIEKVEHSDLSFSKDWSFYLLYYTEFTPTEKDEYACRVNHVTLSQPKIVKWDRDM
For test [6], the target named is rhTrop-2/TACSTD2 (Sino Biological, Inc.) immobilized on a CM5 sensor chip (human) (UniProt P09758). The test can be described thus: SPR (BIACORE), low-density recombinant human Trop-2 chip, three runs.
The target of test [7] is human Trop-2 on the surface of human tumor cells (human) (UniProt P09758). The test can be described thus: cell binding assay.
The target in test [8] is rhTrop-2/TACSTD2 (Sino Biological, Inc.) immobilized on a CM5 sensor chip (human) (UniProt P09758). The test can be described thus: SPR (BIACORE), Trop-2 chip.
Test [9] addresses human Trop-2 on the surface of human tumor cells (human) (UniProt P09758). The test can be described thus: cell-based or functional assay. The source holds these as a separate data set.
For test [10], the target named is recombinant human Trop-2 with a His-tag (Sino Biological, Cat#10428-H09H) (human) (UniProt P09758). The test can be described thus: ELISA on Ni-NTA strips coated with recombinant His-tagged human Trop-2.
For test [11], the target named is T1, human Trop-2 on the surface of human tumor cells (human, UniProt P09758 27-323).
T1 construct: whole, on cells; also called EGP-1; TACSTD2
T1 sequence (looked up): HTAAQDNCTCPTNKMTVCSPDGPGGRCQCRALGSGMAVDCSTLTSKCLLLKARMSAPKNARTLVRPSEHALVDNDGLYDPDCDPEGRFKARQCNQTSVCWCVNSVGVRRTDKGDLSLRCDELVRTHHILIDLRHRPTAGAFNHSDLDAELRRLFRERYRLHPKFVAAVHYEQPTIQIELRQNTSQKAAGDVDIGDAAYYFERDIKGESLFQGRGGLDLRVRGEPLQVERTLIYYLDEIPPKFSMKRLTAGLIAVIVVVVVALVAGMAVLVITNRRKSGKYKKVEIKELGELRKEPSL
As to the kind of experiment: cell binding on NCI-N87 cells, anti-mouse-HRP, luminescence.

Usually Kd stands for the equilibrium constant for the complex coming apart. The molecule “162-46.2 murine monoclonal antibody against human Trop-2” gave a reduction of Bmax against RS7 in test [1] of 25%. Further, in [2], the dissociation constant (Kd) worked out at 0.52 nM and the maximum binding (Bmax) (relative luminescent units) is 8470.
In the same order, the values of “MAB650 murine monoclonal antibody against human Trop-2 (R&D Systems)” are 50%, 0.49 nM and 6020.
For “sacituzumab govitecan (IMMU-132, hRS7-CL2A-SN-38) (antibody)”, the Kd in test [3] came to 192 nM. In test [4], the ADCC, percent specific lysis of MDA-MB-468 cells (LDH release, E:T 50:1, 33.3 nM) worked out at 8.6%; the median fluorescence intensity of anti-rH2AX-AF488 staining (dsDNA breaks), HCC1806 (Trop-2+) cells turned out to be 546 MFI; the γH2AX induction in BxPC-3 cells, Mean Fluorescence Intensity was found to be 5350 MFI; the γH2AX induction in BxPC-3 cells, Percent Positive stood at 69%. Moreover, in test [5], the fold decrease in fold change of average binding level (reference not named; the comparison in paragraph 543 is with hRS7) came out at 2 fold. Moreover, the dissociation constant Kd in test [6] turned out to be 0.26 nM. Moreover, the Kd in [7] was 1.2 nM. In [8], this molecule registered a fold improvement of KD against naked hRS7 of 2 fold.

B1: humanized RS7 (hRS7) anti-Trop-2 IgG (antibody, INN chains, looked up, V domains shown)
VH: QVQLQQSGSELKKPGASVKVSCKASGYTFTNYGMNWVKQAPGQGLKWMGWINTYTGEPTYTDDFKGRFAFSLDTSVSTAYLQISSLKADDTAVYFCARGGFGSSYWYFDVWGQGSLVTVSS
VL: DIQLTQSPSSLSASVGDRVSITCKASQDVSIAVAWYQQKPGKAPKLLIYSASYRYTGVPDRFSGSGSGTDFTLTISSLQPEDFAVYYCQQHYITPLTFGAGTKVEIK
B1: the results for the equilibrium dissociation constant (Kd) in test [3], in test [6] and in test [10] were 92.4 nM, 0.51 nM and 0.3 nM, respectively. In addition, the ADCC, percent specific lysis of BxPC-3 cells (PBMC effectors, E:T 100:1, 33.3 nM) in test [9] is 8.5%. Besides, the ADCC, percent specific lysis of MDA-MB-468 cells (LDH release, E:T 50:1, 33.3 nM) in [9] is 29.8%.

B2: hRS7-CL2-SN-38 (antibody, INN chains, looked up, V domains shown)
VH: B1 VH
VL: B1 VL
modifications: SN-38 via CL2 linker
Turning to B2, the equilibrium dissociation constant (Kd) in test [7] was 1.2 nM.

B3: murine RS7 anti-Trop-2 monoclonal antibody (antibody, V domains shown)
VH: VKLQESGPELKKPGETVKISCKASGYTFTNYGMNWVKQAPGKGLKWMGWINTYTGEPTYTDDFKGRFAFSLETSATTAYLQINNLKSEDMATYFCARGGFGSSYWYFDVWGQGTTVTVSS
VL: DIQLTQSHKFMSTSVGDRVSITCKASQDVSIAVAWYQQKPGQSPKLLIYSASYRYTGVPDRFTGSGSGTDFTFTISSVQAEDLAVYYCQQHYITPLTFGAGTKLELK
As to B3, the equilibrium dissociation constant (Kd) in test [11] came to 0.57 nM.
